For assay [1], the target named is FGF2-Y81pCMF-GFP (human). As to the kind of experiment: z-scan fluorescence correlation spectroscopy (brightness analysis); protein on single GUVs with a plasma membrane-like lipid composition containing PI(4,5)P2, pre-incubated at least 30 min; average oligomeric state = cluster brightness / monomer brightness; GUVs containing membrane pores, protein surface concentration larger than 0.4 nmol/m^2.

Assay [2] addresses FGF2-Y81pCMF-GFP (human). Briefly: z-scan fluorescence correlation spectroscopy (brightness analysis); as a2; GUVs without membrane pores, protein surface concentration ≤0.4 nmol/m^2.
Assay [3] concerns the target FGF2-Y81pCMF-GFP (human). Briefly: z-scan fluorescence correlation spectroscopy (brightness analysis); as a2; GUVs containing membrane pores, protein surface concentration smaller than 0.4 nmol/m^2.

Usually stoichiometry N stands for the number of molecules, sites or subunits per partner or assembly.

The substance FGF2-Y81pCMF-GFP (natural protein) had a stoichiometry N with FGF2-Y81pCMF-GFP (human) [1] of 8 to 12 subunits.
Consider FGF2-Y81pCMF-GFP, for which the stoichiometry N (average oligomeric state) in the assay with FGF2-Y81pCMF-GFP (human) [2] was 5.22; with FGF2-Y81pCMF-GFP (human) [3], 5.24; in the assay with FGF2-Y81pCMF-GFP (human) [1] it was 9.23.

The record behind these values is article PMC5601999.
